Target: GST-HA-ATG16L1-231–607 produced in yeast (extended WDD construct that includes residue 300), Q676U5
Assay: peptide microarray
Conditions: chain shown with the change, probe purified from yeast, mean ± s.d., n=9 replicas, read off a plot

GST-HA-ATG16L1-231–607 produced in yeast (extended WDD construct that includes residue 300), Q676U5, sequence (Q676U5 231-607): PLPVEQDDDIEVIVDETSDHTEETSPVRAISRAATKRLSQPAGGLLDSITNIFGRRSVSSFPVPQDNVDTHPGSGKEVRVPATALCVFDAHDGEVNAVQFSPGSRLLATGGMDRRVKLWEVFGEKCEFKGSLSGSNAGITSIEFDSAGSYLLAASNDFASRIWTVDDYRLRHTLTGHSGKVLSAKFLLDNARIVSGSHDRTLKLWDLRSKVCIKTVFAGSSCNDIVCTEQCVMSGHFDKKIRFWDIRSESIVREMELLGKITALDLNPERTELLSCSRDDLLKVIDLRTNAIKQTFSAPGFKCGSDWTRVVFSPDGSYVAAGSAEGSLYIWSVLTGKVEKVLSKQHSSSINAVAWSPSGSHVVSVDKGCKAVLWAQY

percent of parent (parent: est. 100, scale: % of WT peptide): 12
response (parent: est. 1100): 200 a.u. (OD635)
Binder: TAVEQAVPSAKLSIAGDAE
